Consider 1 protein from PMC6718402, “The structural basis of lipid scrambling and inactivation in the endoplasmic reticulum scramblase TMEM16K” (Nature Communications, 2019).

The data set concerns the molecule itself. Kind of data set: crystal structure; TMEM16K purified in UDM/CHS, crystallised in lipidic cubic phase (MAG 7.9; 0.1 M MES pH 6.0, 0.1 M NaCl, 0.1 M CaCl2, 30% PEG300) and by sitting drop vapour diffusion (0.1 M HEPES pH 7.0, 0.1 M calcium acetate, 22% PEG400); open groove conformation.

B1: human TMEM16K (anoctamin-10), full length (natural protein, UniProt Q9NW15-1 1-660, looked up)
chain: MKVTLSALDTSESSFTPLVVIELAQDVKEETKEWLKNRIIAKKKDGGAQLLFRPLLNKYEQETLENQNLYLVGASKIRMLLGAEAVGLVKECNDNTMRAFTYRTRQNFKGFDDNNDDFLTMAECQFIIKHELENLRAKDEKMIPGYPQAKLYPGKSLLRRLLTSGIVIQVFPLHDSEALKKLEDTWYTRFALKYQPIDSIRGYFGETIALYFGFLEYFTFALIPMAVIGLPYYLFVWEDYDKYVIFASFNLIWSTVILELWKRGCANMTYRWGTLLMKRKFEEPRPGFHGVLGINSITGKEEPLYPSYKRQLRIYLVSLPFVCLCLYFSLYVMMIYFDMEVWALGLHENSGSEWTSVLLYVPSIIYAIVIEIMNRLYRYAAEFLTSWENHRLESAYQNHLILKVLVFNFLNCFASLFYIAFVLKDMKLLRQSLATLLITSQILNQIMESFLPYWLQRKHGVRVKRKVQALKADIDATLYEQVILEKEMGTYLGTFDDYLELFLQFGYVSLFSCVYPLAAAFAVLNNFTEVNSDALKMCRVFKRPFSEPSANIGVWQLAFETMSVISVVTNCALIGMSPQVNAVFPESKADLILIVVAVEHALLALKFILAFAIPDKPRHIQMKLARLEFESLEALKQQQMKLVTENLKEEPMESGKEKAT
notes: The tag was removed with TEV protease before size exclusion, so residues of the TEV site may remain at the C-terminus; Modelled residues: Ser14-Gln639 (LCP crystal), Ser13-Lys641 (2 mM Ca2+ cryo-EM); the purification is described as similar to that for crystallisation (Sf9); also called hTMEM16K; ANO10; source: Sf9 cells (baculovirus), purified in UDM/CHS (Talon resin, TEV cleavage, Superose 6 …)
As to B1, the “stoichiometry N” value worked out at 2.

As usually defined, the stoichiometry N is a count of units in the complex or per binding partner.
